The record followed here is paper PMC8967717 (Nature, 2022).

Substitutions are numbered along the chain they refer to.

For assay [1], the target named is SARS-CoV-2 wild-type spike (S) protein (SARS-CoV-2, WT (MN908947), UniProt P0DTC2).
In assay [2] the target is SARS-CoV-2 wild-type spike receptor-binding domain (SARS-CoV-2, WT (MN908947), UniProt P0DTC2).

B1: XGV042 (antibody, V domains shown)
VH: QITLKESGPTLVKPTQTLTLTCTFSGLSMTTSGVGVGWIRQPPGKALEWLALIYWDDDKRYSPFLKSRLTITKDTSKNQVVLTMTNMDPADTGTYFCAHHTIPSIFDHWGQGTLVTVSS
VL: QSALTQPASVSGSPGQSITISCTATSSDVGVYNYVSWYQQYPGKAPRLIIFEVSNRPSGVSSRFSGSKSGYTASLTISGLQTDDEADYYCSSYTTTSTVFGGGTKLTVL
On to B1, for which the binding result in assay [1] and in assay [2] was “binds” each time.

B2: XGV026 (antibody, V domains shown)
VH: EVQLVESGGGVIQPGGSLRLSCAASEIIVSSNYMNWVRQAPGKGLEWVSVIYPGGSSFYADSVKGRFTISRDNSKNTLYLQMNSLRVEDTAVYYCARDSPHRPGTIWGQGTLVVVSS
VL: DIQMTQSPSSLSASVGDRVTITCRASQDINNYLNWYQQKPGKAPKLLIYDAFTLEAGVPSRFSGARFGTDFTFTISSLQPEDIATYYCHQCDNLPCTFGGGTKVEIK
For B2, the binding result in assay [1] and in assay [2] was “binds” in each case.

B3: XGV031 (antibody, V domains shown)
VH: QVQLVQSGAEVKKPGSSVKVSCKASGGTFSNYALSWVRQAPGQGLEWMGGIIPIFGTTNYAQNFQGRVTITADESTSTAYMELSSLRSEDTAVYYCARLDGYSFGHNRYYQDGMDDWGQGTTVTVSS
VL: DIQMTQSPSSLSASVGDRVTITCRASQAIRSDLGWYQQKPGKAPKCLIYAASTLQSGVPSRFSGSGSGTEFTLTISSLQPEDFATYYCLQQNIYPRTFGQGTKVEI
As for B3, the binding result in assay [1] and in assay [2] was “binds” throughout.

B4: XGv051 (antibody, V domains shown)
VH: B3 VH with N63K, N107D, Q119P
VL: B3 VL with S31N, Y87F
As for B4, the binding result in assay [1] and in assay [2] was “binds” each time.

B5: XGv053 (antibody, V domains shown)
VH: B3 VH with N31S, S35T, N63K, S84T
VL: DIQMTQSPSSLSASVGDRVTITCRASQDIRNDLGWYQQKPGKAPKCLIYAASTLQSGVPSRFSGSGSGTEFTLTISSLQPEDFATYYCLQQNIYPRTFGQGTKVEIK
In the case of B5, the binding result in assay [1] and in assay [2] was “binds” throughout.

B6: XGV017 (antibody, V domains shown)
VH: EVQLVESGGGLIQPGGSLRLSCAASGVTVSSNYMNWVRQAPGKGLEWVSVIYPGGTRDYSDSVKGRFTISRDSSKNTLYLQMNSLRDEDTAFYYCARDLVVYGMDVWGQGTTVTVTS
VL: DIQLTQSPSSLSASVGDRVTITCRASQGISSYLAWYQQKPGKAPKLLIYAASTLQSGVPSRFSGSGSGTDFTLTISSLQPEDFAAYYCQLLNTYPLTFGGGTKVEIK
On to B6, for which the binding result in assay [1] and in assay [2] was “binds” throughout.

B7: XGV016 (antibody, V domains shown)
VH: QVQLVQSGTEVRKPGASVTVSCKASGYTFTTYHMHWVRRAPGQGLEWMGIIDPGTGGASYPQKFRGRVTLTRDTSTNTVYMELSSLRFQDTAIYYCARAEGSSWLGWFDPWGQGTLVTVSS
VL: QSVLTQPPSASGTPGQRVSISCSGSSSNIGTNYVYWYQQLPGTAPKLLIYKNNQRPSGVPDRFSGSKSGTSASLAISGLRSEDEADYFCASWDNGLSGSGWVFGGGTKLTV
Take B7: the binding result in assay [1] and in assay [2] was “binds” each time.

B8: XGV050 (antibody, V domains shown)
VH: EVQLVESGGGLVQPGGSLRLSCAASGFTFSRYDMHWVRQAAGKGLEWVSGIGAPGDTYYAGSVKGRFTISRENAKTSLHLQMNNLRAGDTAVYYCTRGWFGENYMDVWGKGTTVTVSS
VL: EIVLTQSPATLSLSPGERATLSCRASQSVSNHLAWFQQKPGQSPRLLIYDASNRATGIPARFSGSGSGTDFTLTISSLEPEDFAIYYCHQRSNWPTFGQGTKVEIK
Regarding B8, the binding result in assay [1] and in assay [2] was “binds” each time.
